In PMC7948760, “Regulation of factor V and factor V-short by TFPIα: Relationship between B-domain proteolysis and binding” (The Journal of Biological Chemistry, 2021):
Ends that are not written are not given here.

T1: FV-short-RQ∗ (FV-short-RQ precleaved at Arg709 with thrombin) (human, UniProt P12259 29-737; P12259 738-2224, Δ756–1458 | Arg^1545 replaced with Gln)
T1 construct: coagulation factor V heavy chain (HC), released by cleavage at Arg709; coagulation factor V, rest of the shortened B-domain with AR2 joined to the light chain; also called FV-short cleaved at Arg709; source: FV-short-RQ (BHK cells, purified), 300 nM incubated with 2 nM thrombin 30 min at 37 °C, quenched with hirudin
T1 sequence (looked up) 1: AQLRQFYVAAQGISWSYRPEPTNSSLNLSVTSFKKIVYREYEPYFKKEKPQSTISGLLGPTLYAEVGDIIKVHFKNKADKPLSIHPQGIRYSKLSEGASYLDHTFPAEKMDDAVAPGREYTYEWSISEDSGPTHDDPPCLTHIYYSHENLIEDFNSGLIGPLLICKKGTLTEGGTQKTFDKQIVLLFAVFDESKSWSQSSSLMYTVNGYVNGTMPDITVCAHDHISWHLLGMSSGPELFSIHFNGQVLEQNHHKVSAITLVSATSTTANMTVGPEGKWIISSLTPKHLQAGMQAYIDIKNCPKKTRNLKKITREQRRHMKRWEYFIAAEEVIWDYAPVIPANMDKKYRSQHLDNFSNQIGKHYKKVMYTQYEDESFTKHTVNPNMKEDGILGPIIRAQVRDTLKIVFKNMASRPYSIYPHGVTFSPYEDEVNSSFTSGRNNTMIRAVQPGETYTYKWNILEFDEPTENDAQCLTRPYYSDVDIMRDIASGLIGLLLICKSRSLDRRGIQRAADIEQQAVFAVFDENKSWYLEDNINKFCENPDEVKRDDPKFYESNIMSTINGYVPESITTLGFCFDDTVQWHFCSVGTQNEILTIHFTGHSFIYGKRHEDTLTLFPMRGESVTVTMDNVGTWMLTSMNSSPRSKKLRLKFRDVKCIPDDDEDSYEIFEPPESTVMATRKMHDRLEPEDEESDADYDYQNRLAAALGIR
T1 sequence (looked up) 2: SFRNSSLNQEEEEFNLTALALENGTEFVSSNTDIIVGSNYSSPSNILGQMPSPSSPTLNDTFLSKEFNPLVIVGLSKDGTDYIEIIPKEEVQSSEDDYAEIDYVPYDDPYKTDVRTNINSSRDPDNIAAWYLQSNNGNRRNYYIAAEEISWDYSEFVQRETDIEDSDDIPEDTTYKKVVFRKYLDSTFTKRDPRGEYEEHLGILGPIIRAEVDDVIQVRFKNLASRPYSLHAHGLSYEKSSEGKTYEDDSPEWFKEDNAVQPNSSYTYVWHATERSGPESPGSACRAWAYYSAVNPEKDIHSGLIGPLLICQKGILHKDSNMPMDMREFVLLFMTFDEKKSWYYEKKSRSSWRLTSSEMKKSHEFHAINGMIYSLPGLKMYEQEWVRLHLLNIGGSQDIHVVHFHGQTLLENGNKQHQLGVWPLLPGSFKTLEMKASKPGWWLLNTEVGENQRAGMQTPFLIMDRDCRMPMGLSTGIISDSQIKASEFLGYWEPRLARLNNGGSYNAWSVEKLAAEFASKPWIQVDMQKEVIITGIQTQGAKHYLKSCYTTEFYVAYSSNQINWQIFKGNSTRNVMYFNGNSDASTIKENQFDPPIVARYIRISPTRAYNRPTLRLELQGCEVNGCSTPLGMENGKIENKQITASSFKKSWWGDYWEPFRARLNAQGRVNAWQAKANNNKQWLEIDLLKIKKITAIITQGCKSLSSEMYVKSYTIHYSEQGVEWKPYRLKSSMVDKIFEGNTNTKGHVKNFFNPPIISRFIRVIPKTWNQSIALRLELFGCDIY

T2: activated factor V (FVa) (human, UniProt P12259 29-737; P12259 1574-2224)
T2 construct: coagulation factor V heavy chain (HC; domains A1-A2); coagulation factor V light chain (LC; domains A3-C1-C2); source: prepared by treatment of FV-short (BHK cells) with thrombin, purified
T2 sequence (looked up) 1: T1 sequence (looked up) 1
T2 sequence (looked up) 2: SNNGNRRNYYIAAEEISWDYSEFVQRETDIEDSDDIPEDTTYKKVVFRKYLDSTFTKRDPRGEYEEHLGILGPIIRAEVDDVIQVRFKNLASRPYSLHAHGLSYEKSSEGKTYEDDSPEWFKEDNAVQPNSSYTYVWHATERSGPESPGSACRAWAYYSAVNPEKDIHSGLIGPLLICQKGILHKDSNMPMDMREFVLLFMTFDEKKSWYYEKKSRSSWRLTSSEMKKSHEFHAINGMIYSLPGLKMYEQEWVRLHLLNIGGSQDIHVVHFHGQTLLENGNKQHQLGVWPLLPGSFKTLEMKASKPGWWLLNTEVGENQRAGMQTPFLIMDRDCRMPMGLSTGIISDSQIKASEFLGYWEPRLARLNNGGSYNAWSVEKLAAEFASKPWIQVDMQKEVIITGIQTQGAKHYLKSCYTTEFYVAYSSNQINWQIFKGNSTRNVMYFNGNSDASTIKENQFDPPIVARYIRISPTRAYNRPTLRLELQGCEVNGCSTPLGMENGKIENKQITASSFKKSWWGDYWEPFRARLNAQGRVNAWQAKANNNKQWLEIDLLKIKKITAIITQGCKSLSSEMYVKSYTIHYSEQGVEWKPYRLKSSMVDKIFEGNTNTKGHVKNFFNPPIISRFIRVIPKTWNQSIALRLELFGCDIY

T3: FV-short-QR∗ (FV-short-QR precleaved at Arg1545 with RVV-V) (human, UniProt P12259 29-1573; P12259 1574-2224, Δ756–1458 | Arg^709 replaced with Gln)
T3 construct: coagulation factor V heavy chain joined to the shortened B-domain with AR2; coagulation factor V light chain (LC), released by cleavage at Arg1545; also called FV-short cleaved at Arg1545; source: FV-short-QR (BHK cells, purified), 300 nM incubated with 2 nM RVV-V 30 min at 37 °C
T3 sequence (looked up) 1: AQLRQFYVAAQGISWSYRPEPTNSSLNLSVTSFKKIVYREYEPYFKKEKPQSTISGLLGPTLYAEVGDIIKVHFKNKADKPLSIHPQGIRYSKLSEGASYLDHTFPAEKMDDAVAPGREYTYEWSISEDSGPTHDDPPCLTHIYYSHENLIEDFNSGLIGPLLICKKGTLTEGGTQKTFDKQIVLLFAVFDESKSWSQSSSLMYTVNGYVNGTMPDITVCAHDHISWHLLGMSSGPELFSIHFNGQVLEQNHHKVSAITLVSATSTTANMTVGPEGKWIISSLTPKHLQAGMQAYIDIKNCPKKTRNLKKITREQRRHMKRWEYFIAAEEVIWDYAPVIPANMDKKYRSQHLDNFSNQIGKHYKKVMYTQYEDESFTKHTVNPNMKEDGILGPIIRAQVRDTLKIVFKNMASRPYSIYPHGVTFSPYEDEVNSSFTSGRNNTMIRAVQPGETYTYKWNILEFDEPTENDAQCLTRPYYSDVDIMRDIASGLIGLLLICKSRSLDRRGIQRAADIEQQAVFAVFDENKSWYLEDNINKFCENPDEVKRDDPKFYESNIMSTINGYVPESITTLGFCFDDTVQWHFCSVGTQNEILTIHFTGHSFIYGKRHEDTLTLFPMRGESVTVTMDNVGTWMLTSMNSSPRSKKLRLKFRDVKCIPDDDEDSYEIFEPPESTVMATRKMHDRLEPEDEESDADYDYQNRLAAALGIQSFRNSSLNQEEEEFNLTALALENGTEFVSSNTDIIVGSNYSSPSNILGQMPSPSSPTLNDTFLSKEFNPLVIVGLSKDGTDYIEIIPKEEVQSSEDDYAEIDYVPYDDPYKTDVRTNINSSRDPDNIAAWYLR
T3 sequence (looked up) 2: T2 sequence (looked up) 2

B1: TFPIα-BR, fragment containing the BR sequence of TFPIα (domain or fragment)
chain: KKGFIQRISKGGLIKTKRKRKKQRVKIAYEEIFVKNM
modifications: limits not printed (refs 17, 18); taken as the whole C-terminal tail after Kunitz 3 (mature 240-276); expressed in E. coli, unglycosylated

Key:
Conditions in all cases: both partners purified
[1] = molecular target: T4, FV-short-QQ (FV-short with Arg709 and Arg1545 replaced with Gln) (human); assay: fluorescence polarisation; competition: unlabeled TFPIα-BR (0–2 μM) or TFPIα (0–1 μM) titrated into 25 nM OG488-TFPIα-BR, 20 nM FV-short-QQ and 50 μM PCPS, assay buffer, 25 °C; stoichiometry of 1 assumed
T4 construct: coagulation factor V, FV-short with both thrombin cleavage sites changed to Gln, not cleaved by thrombin; source: BHK cells, purified

[2] = molecular target: T4, FV-short-QQ (FV-short with Arg709 and …); assay: inhibition of prothrombinase (prothrombin activation assay); 0.1 nM cofactor species, 50 μM PCPS, 1.4 μM prothrombin, 3 μM DAPA, TFPIα-BR 0–7 μM, started with 2 nM FXa, assay buffer, 25 °C; Ki from the equation for competitive inhibition
[3] = molecular target: T1, FV-short-RQ∗ (FV-short-RQ precleaved at …); assay: as above
[4] = molecular target: T5, FV-short (factor V isoform with B-domain residues 756 to 1458 deleted) (human); assay: as above
T5 construct: coagulation factor V, splicing isoform FV-short, single chain, lacks the BR and retains AR2; source: BHK cells, purified

[5] = molecular target: T2, activated factor V (FVa); assay: as above
[6] = molecular target: T3, FV-short-QR∗ (FV-short-QR precleaved at …); assay: as above
[7] = molecular target: T4, FV-short-QQ (FV-short with Arg709 and …); assay: as above; remark: listed apart in the source
[8] = molecular target: T1, FV-short-RQ∗ (FV-short-RQ precleaved at …); assay: as above; remark: listed apart in the source
[9] = molecular target: T5, FV-short (factor V isoform with …); assay: as above; remark: listed apart in the source
[10] = molecular target: T1, FV-short-RQ∗ (FV-short-RQ precleaved at …); assay: fluorescence polarisation; steady-state anisotropy; FV species (0–100 nM) titrated into 20 nM OG488-TFPIα-BR and 50 μM PCPS, assay buffer (20 mM HEPES, 0.15 M NaCl, 5 mM CaCl2, 0.1% PEG 8000, pH 7.4), 25 °C; fit to independent, noninteracting sites
[11] = molecular target: T5, FV-short (factor V isoform with …); assay: as above

Binder	Kd [1] [nM]	Ki [2] [nM]	Ki [3] [nM]	Ki [4] [nM]	Ki [5] [nM]	Ki [6] [nM]	Ki [7] [nM]	Ki [8] [nM]	Ki [9] [nM]	Kd [10] [nM]	Kd [11] [nM]
B1	2.25 ± 0.2	23.4	83.9	23.6	> 7000	> 7000	21.5	86.1	19.8	–	–
{C(Oregon Green488 maleimide)}-KKGFIQRISKGGLIKTKRKRKKQRVKIAYEEIFVKNM (domain or fragment) [OG488-TFPIα-BR, TFPIα-BR modified with Oregon Green488 maleimide]	–	–	–	–	–	–	–	–	–	2.16 ± 0.25	0.71 ± 0.11
